Source: paper PMC3458870 (PLoS ONE, 2012)

Molecular target: the molecule itself
Experiment: SEC

B1: truncated form of human PAH including the catalytic domain, hPAH(Gly103-Gln428) (domain or fragment)
chain: GATVHELSRDKKKDTVPWFPRTIQELDRFANQILSYGAELDADHPGFKDPVYRARRKQFADIAYNYRHGQPIPRVEYMEEEKKTWGTVFKTLKSLYKTHACYEYNHIFPLLEKYCGFHEDNIPQLEDVSQFLQTCTGFRLRPVAGLLSSRDFLGGLAFRVFHCTQYIRHGSKPMYTPEPDICHELLGHVPLFSDRSFAQFSQEIGLASLGAPDEYIEKLATIYWFTVEFGLCKQGDSIKAYGAGLLSSFGELQYCLSEKPKLLPLELEKTAIQNYTVTEFQPLYYVAESFNDAKEKVRNFAATIPRPFSVRYDPYTQRIEVLDNTQ
stoichiometry N: 2
